Substrate in the data set: CC(=O)[C@@H](O)[C@H](O)COP(=O)(O)O
In words: Enzymatic activity of yaeM gene product (NADPH decrease, absorbance at 340 nm). It counts as biochemical, E. coli. Particulars: other: in the presence of MnCl2; pH 7.5; 37.0 °C.

Description: 0.3 mol/l of 1-deoxy-D-xylulose 5-phosphate (final concentration) synthesized as described above was added to 1 ml of a reaction solution containing 100 mol/l Tris-hydrochloric acid (pH 7.5), 1 mol/l MmCl2, 0.3 mol/l NADPH and yaeM gene product obtained in Example 8 (2) ? , and then incubated at 37° C.
The enzymological characteristics of 1-deoxy-D-xylulose 5-phosphate reductoisomerase were examined using 1 ml of the reaction system as described in Example 8 (2) ? . Here, 1 unit is defined as the activity to oxidize 1 mmol of NADPH per a minute.

B1: 1-deoxy-D-xylulose 5-phosphate reductoisomerase (Escherichia coli K-12) (protein)
chain: MKQLTILGSTGSIGCSTLDVVRHNPEHFRVVALVAGKNVTRMVEQCLEFSPRYAVMDDEASAKLLKTMLQQQGSRTEVLSGQQAACDMAALEDVDQVMAAIVGAAGLLPTLAAIRAGKTILLANKESLVTCGRLFMDAVKQSKAQLLPVDSEHNAIFQSLPQPIQHNLGYADLEQNGVVSILLTGSGGPFRETPLRDLATMTPDQACRHPNWSMGRKISVDSATMMNKGLEYIEARWLFNASASQMEVLIHPQSVIHSMVRYQDGSVLAQLGEPDMVRQLPTPWAWPNRVNSGVKPLDFCKLSALTFAAPDYDRYPCLKLAMEAFEQGQAATTALNAANEITVAAFLAQQIRFTDIAALNLSVLEKMDMREPQCVDDVLSVDANAREVARKEVMRLAS
notes: made in house; host or cells: E. coli M15/pREP4
Broadly, the Km is the concentration of substrate that gives half-maximal velocity. Turning to B1, the Km came out at 249 µM.

For the origin of these results see patent publication US7531333B2, “Process for producing isoprenoid compounds by microorganisms and a method for screening compounds with antibiotic or weeding activity” (Kyowa Hakko Kogyo Co., Ltd., priority 1998, dated 2009).
